Results reported in patent US20250361312A1 (INVOX PHARMA, published 2025).
Where two headings read alike, the source gives them in different places. One block for each binder: values may come before it.

Legend:
[1] = target: T1, human OX40 receptor, cell-expressed (DO11.10-hOX40) (human, UniProt P43489 29-277); assay: cell binding, DO11.10-hOX40 cells, soluble Fcab
T1 construct: also called CD134; TNFRSF4
T1 sequence: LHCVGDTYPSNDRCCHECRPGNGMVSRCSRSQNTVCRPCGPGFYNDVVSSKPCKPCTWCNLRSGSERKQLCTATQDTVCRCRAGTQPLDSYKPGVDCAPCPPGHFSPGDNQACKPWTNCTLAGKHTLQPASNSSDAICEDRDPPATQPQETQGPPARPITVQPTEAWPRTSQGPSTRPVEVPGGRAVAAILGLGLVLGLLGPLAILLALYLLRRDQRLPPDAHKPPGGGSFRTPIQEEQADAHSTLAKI

[2] = target: T2, mouse OX40 receptor, cell-expressed (DO11.10-mOX40) (mouse, UniProt P47741 20-272); assay: cell-based or functional assay
T2 sequence: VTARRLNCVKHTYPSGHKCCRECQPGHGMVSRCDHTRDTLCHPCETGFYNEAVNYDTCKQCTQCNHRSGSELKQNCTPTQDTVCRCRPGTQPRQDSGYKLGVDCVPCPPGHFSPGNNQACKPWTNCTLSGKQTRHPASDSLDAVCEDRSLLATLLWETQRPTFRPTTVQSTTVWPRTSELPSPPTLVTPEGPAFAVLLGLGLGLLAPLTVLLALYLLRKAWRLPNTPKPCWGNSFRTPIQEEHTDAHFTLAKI

[3] = target: T2, mouse OX40 receptor, cell-expressed …; assay: cell-based or functional assay; remark: listed apart in the source
[4] = target: T2, mouse OX40 receptor, cell-expressed …; assay: cell-based or functional assay; remark: listed apart in the source
[5] = target: T2, mouse OX40 receptor, cell-expressed …; assay: flow cytometry on DO11.10-mOX40 cells
Description: Non-specific binding was also assessed by testing for binding to HEK cells not expressing OX40 by flow cytometry.
DO11.10 mOX40 or HEK cell suspensions were prepared in PBS+2% BSA (Sigma, A7906) and seeded at 4×10⁶ cell/ml with 50 μl/well in V-bottomed 96-well plates (Costar, 3897). […] The data was fit using log (agonist) vs response in GraphPad Prism Software.

[6] = target: T2, mouse OX40 receptor, cell-expressed …; assay: cell-based or functional assay; remark: listed apart in the source
[7] = target: T2, mouse OX40 receptor, cell-expressed …; assay: flow cytometry, labelled antibody on DO11.10-mOX40 cells
mouse CD137 = target: T3, mouse CD137 (mouse, UniProt P20334 24-187, limits assumed); assay: SPR (Biacore T200), receptor on CM5 chip
T3 construct: Amine-coupled to a CM5 chip; also called 4-1BB
T3 sequence (looked up): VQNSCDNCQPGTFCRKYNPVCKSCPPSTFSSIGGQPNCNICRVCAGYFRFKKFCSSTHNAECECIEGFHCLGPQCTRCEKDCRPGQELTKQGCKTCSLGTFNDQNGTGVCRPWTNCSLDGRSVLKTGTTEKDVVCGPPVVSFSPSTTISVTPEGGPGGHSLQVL

mouse NGFR = target: T4, mouse NGFR (mouse, UniProt Q9Z0W1 32-254, limits assumed); assay: SPR (Biacore T200), receptor on CM5 chip
T4 construct: Amine-coupled to a CM5 chip
T4 sequence (looked up): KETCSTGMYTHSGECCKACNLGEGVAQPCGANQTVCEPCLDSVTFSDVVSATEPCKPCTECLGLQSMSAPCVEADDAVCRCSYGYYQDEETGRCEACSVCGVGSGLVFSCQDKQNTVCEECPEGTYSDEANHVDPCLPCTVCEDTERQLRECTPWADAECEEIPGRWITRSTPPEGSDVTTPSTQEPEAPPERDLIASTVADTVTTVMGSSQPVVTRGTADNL

mouse TNFRI = target: T5, mouse TNFRI (mouse, UniProt P25118 22-212, limits assumed); assay: SPR (Biacore T200), receptor on CM5 chip
T5 construct: Amine-coupled to a CM5 chip
T5 sequence (looked up): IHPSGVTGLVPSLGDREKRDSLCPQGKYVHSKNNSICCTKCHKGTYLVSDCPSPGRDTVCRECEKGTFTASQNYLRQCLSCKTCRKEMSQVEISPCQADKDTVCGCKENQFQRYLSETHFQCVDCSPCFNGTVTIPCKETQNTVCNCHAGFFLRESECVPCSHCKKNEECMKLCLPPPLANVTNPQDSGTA

mouse CD40 = target: T6, mouse CD40 (mouse, UniProt P27512 24-193, limits assumed); assay: SPR (Biacore T200), receptor on CM5 chip
T6 construct: Amine-coupled to a CM5 chip
T6 sequence (looked up): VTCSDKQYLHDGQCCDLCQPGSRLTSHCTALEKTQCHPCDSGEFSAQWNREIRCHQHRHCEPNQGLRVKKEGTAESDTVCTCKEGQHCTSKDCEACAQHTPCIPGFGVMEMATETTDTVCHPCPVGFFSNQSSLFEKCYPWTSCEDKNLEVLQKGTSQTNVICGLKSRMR

mouse TNFRII = target: T7, mouse TNFRII (mouse, UniProt P25119 23-258, limits assumed); assay: SPR (Biacore T200), receptor on CM5 chip
T7 construct: Amine-coupled to a CM5 chip
T7 sequence (looked up): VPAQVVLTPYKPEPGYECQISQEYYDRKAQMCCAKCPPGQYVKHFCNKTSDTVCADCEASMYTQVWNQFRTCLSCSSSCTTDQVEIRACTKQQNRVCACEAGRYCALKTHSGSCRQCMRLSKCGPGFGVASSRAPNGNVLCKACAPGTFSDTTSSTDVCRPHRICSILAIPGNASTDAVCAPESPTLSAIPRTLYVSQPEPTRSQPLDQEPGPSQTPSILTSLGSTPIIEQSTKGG

B1: Fcab FS20-22 (designed binder)
chain: TCPPCPAPELLGGPSVFLFPPKPKDTLMISRTPEVTCVVVDVSHEDPEVKFNWYVDGVEVHNAKTKPREEQYNSTYRVVSVLTVLHQDWLNGKEYKCKVSNKALPAPIEKTISKAKGQPREPQVYTLPPSRDEYWDQEVSLTCLVKGFYPSDIAVEWESNGQPENNYKTTPPVLDSDGSFFLYSKLTVDQYRWNPGGYFSCSVMHEALHNHYTQKSLSLSPG
notes: Soluble Fcab
binding result [1]: binds

B4: G1AA/OX86 (antibody, human IgG1, kappa, L234A L235A, V domains shown)
VH: QVQLKESGPGLVQPSQTLSLTCTVSGFSLTGYNLHWVRQPPGKGLEWMGRMRYDGDTYYNSVLKSRLSISRDTSKNQVFLKMNSLQTDDTAIYYCTRDGRGDSFDYWGQGVMVTVSS
VL: DIVMTQGALPNPVPSGESASITCRSSQSLVYKDGQTYLNWFLQRPGQSPQLLTYWMSTRASGVSDRFSGSGSGTYFTLKISRVRAEDAGVYYCQQVREYPFTFGSGTKLEIKR
notes: also called anti-mouse OX40 mAb OX86 in a human IgG1 backbone with the LALA mutation
EC50 of IL-2 release, crosslinked (anti-human CH2 mAb) [3]: 1.75 nM
EC50 [5]: 3.1 nM
EC50 of IL-2 release, Xlink (anti-hCH2) [6]: 0.463 nM

Other lines, results leading:

binding result [1]: binds
B2: Fcab FS20-31 (designed binder)
chain: TCPPCPAPELLGGPSVFLFPPKPKDTLMISRTPEVTCVVVDVSHEDPEVKFNWYVDGVEVHNAKTKPREEQYNSTYRVVSVLTVLHQDWLNGKEYKCKVSNKALPAPIEKTISKAKGQPREPQVYTLPPSRDEYYSGEVSLTCLVKGFYPSDIAVEWESNGQPENDYKTTPPVLDSDGSFFLYSKLTVPYWRWGGPGTFSCSVMHEALHNHYTQKSLSLSPG
notes: Soluble Fcab

EC50 of IL-2 release, Xlink (FITC-dextran) [2]: 0.629 nM
EC50 of IL-2 release, crosslinked (FITC-dextran) [3]: 0.67 nM
EC50 of IL-2 release, HPAC cells present, + FITCdex [4]: 0.548 nM
EC50 of IL-2 release, HPAC cells present, + G1/E2A + a-hFc + FITCdex [4]: 2.09 nM
EC50 [5]: 1.01 nM
EC50 of IL-2 release, Xlink (FITC-dextran) [6]: 0.158 nM
EC50 of IL-2 release, no crosslinker [6]: 76.4 nM
B3: FS20m-232-91AA/4420 (bispecific antibody, human IgG1, kappa, L234A L235A)
heavy: EVKLDETGGGLVQPGRPMKLSCVASGFTFSDYWMNWVRQSPEKGLEWVAQIRNKPYNYETYYSDSVKGRFTISRDDSKSSVYLQMNNLRVEDMGIYYCTGSYYGMDYWGQGTSVTVSSASTKGPSVFPLAPSSKSTSGGTAALGCLVKDYFPEPVTVSWNSGALTSGVHTFPAVLQSSGLYSLSSVVTVPSSSLGTQTYICNVNHKPSNTKVDKKVEPKSCDKTHTCPPCPAPEAAGGPSVFLFPPKPKDTLMISRTPEVTCVVVDVSHEDPEVKFNWYVDGVEVHNAKTKPREEQYNSTYRVVSVLTVLHQDWLNGKEYKCKVSNKALPAPIEKTISKAKGQPREPQVYTLPPSRDELFDPMYYYNQVSLTCLVKGFYPSDIAVEWESNGEPLWDYKTTPPVLDSDGSFFLYSKLTVWRDRWEDGNVFSCSVMHEALHNHYTQKSLSLSPG
light: DVVMTQTPLSLPVSLGDQASISCRSSQSLVHSNGNTYLRWYLQKPGQSPKVLIYKVSNRFSGVPDRFSGSGSGTDFTLKISRVEAEDLGVYFCSQSTHVPWTFGGGTKLEIKRTVAAPSVFIFPPSDEQLKSGTASVVCLLNNFYPREAKVQWKVDNALQSGNSQESVTEQDSKDSTYSLSSTLTLSKADYEKHKVYACEVTHQGLSSPVTKSFNRGEC
notes: Human IgG1 with anti-FITC 4420 Fab and LALA; The mouse OX40 site is in the CH3 domain; also called mFS20-232-91AA/4420; anti-mouse OX40 Fcab FS20m-232-91 in mock (4420 LALA) mAb^2 format

fluorescence over non-transduced cells [7]: ≥ 10 fold
B5: antibody OX86 (Biolegend cat no 119408) (antibody, V domains shown)
VH: B4 VH
VL: DIVMTQGALPNPVPSGESASITCRSSQSLVYKDGQTYLNWFLQRPGQSPQLLTYWMSTRASGVSDRFSGSGSGTYFTLKISRVRAEDAGVYYCQQVREYPFTFGSGTKLEIK

binding result (mouse CD137): no binding (tested: 1 µM)
binding result (mouse NGFR): no binding (tested: 1 µM)
binding result (mouse TNFRI): no binding (tested: 1 µM)
binding result (mouse CD40): no binding (tested: 1 µM)
binding result (mouse TNFRII): no binding (tested: 1 µM)
B6: FS20m-232-91AA/HEL D1.3 (bispecific antibody, human IgG1, kappa, L234A L235A, V domains shown)
VH: QVQLQESGPGLVRPSQTLSLTCTVSGSTFSGYGVNWVRQPPGRGLEWIGMIWGDGNTDYNSALKSRVTMLVDTSKNQFSLRLSSVTAADTAVYYCARERDYRLDYWGQGSLVTVSS
VL: DIQMTQSPASLSASVGETVTITCRASGNIHNYLAWYQQKQGKSPQLLVYNAKTLADGVPSRFSGSGSGTQYSLKINSLQPEDFGSYYCQHFWSTPRTFGGGTKLEIKR
notes: Human IgG1 with anti-HEL D1.3 Fab and LALA; also called FS20m-232-91 in mock (HEL D1.3 LALA) mAb^2 format; FS20m-232-91/HelD1.3 mock mAb^2 with LALA mutation
